Test results as given in US20060257938A1, “Method of screening for drugs that block ligand binding to a lipid binding protein” (priority 2005, published 2006).
Changes are numbered by the printed parent chain.

B1: 49A1, 72A (protein, listed as Rattus norvegicus)
chain: AFDGTWKVDRNENYEKFMEKMGINVVKRKLGAHDNLKLTITQEGNKFTAKESSNFRNIDVVFELGVDFAYSAADGTELTGTWTMEGNKLVGKFKRVDNGKELIAVREISGNELIQTYTYEGVEAKRIFKKE
modifications: PEPTIDE (1)...(131) wild-type rat intestinal fatty acid binding protein
B2: 49K1, 72A (protein, listed as Rattus norvegicus)
chain: B1 chain with A49K
modifications: PEPTIDE (1)...(131) wild-type rat intestinal fatty acid binding protein
B3: 49S1, 72A (protein, listed as Rattus norvegicus)
chain: B1 chain with A49S
modifications: PEPTIDE (1)...(131) wild-type rat intestinal fatty acid binding protein
B4: 49F1, 72A (protein, listed as Rattus norvegicus)
chain: B1 chain with A49F
modifications: PEPTIDE (1)...(131) wild-type rat intestinal fatty acid binding protein
B5: 49L1, 72A (protein, listed as Rattus norvegicus)
chain: B1 chain with A49L
modifications: PEPTIDE (1)...(131) wild-type rat intestinal fatty acid binding protein
B6: 49T1, 72A (protein, listed as Rattus norvegicus)
chain: B1 chain with A49T
modifications: PEPTIDE (1)...(131) wild-type rat intestinal fatty acid binding protein
B7: 49P1, 72A (protein, listed as Rattus norvegicus)
chain: B1 chain with A49P
modifications: PEPTIDE (1)...(131) wild-type rat intestinal fatty acid binding protein
B8: 49I1, 72A (protein, listed as Rattus norvegicus)
chain: B1 chain with A49I
modifications: PEPTIDE (1)...(131) wild-type rat intestinal fatty acid binding protein
B9: 49N1, 72A (protein, listed as Rattus norvegicus)
chain: B1 chain with A49N
modifications: PEPTIDE (1)...(131) wild-type rat intestinal fatty acid binding protein
B10: 49C1, 72A (protein, listed as Rattus norvegicus)
chain: B1 chain with A49C
modifications: PEPTIDE (1)...(131) wild-type rat intestinal fatty acid binding protein
B11: 49G1, 72A (protein, listed as Rattus norvegicus)
chain: B1 chain with A49G
modifications: PEPTIDE (1)...(131) wild-type rat intestinal fatty acid binding protein
B12: 49D1, 72A (protein, listed as Rattus norvegicus)
chain: B1 chain with A49D
modifications: PEPTIDE (1)...(131) wild-type rat intestinal fatty acid binding protein
B13: 102T, 72A (protein, listed as Rattus norvegicus)
chain: B1 chain with A49V, L102T
modifications: PEPTIDE (1)...(131) wild-type rat intestinal fatty acid binding protein
B14: 49R1, 72A (protein, listed as Rattus norvegicus)
chain: B1 chain with A49R
modifications: PEPTIDE (1)...(131) wild-type rat intestinal fatty acid binding protein
B15: 49Q1, 72A (protein, listed as Rattus norvegicus)
chain: B1 chain with A49Q
modifications: PEPTIDE (1)...(131) wild-type rat intestinal fatty acid binding protein
B16: 49Q, 72A (protein, listed as Rattus norvegicus)
chain: B1 chain with A49Q
modifications: PEPTIDE (1)...(131) wild-type rat intestinal fatty acid binding protein
B17: 49H1, 72A (protein, listed as Rattus norvegicus)
chain: B1 chain with A49H
modifications: PEPTIDE (1)...(131) wild-type rat intestinal fatty acid binding protein
B18: 49W1, 72A (protein, listed as Rattus norvegicus)
chain: B1 chain with A49W
modifications: PEPTIDE (1)...(131) wild-type rat intestinal fatty acid binding protein
B19: 49M1, 72A (protein, listed as Rattus norvegicus)
chain: B1 chain with A49M
modifications: PEPTIDE (1)...(131) wild-type rat intestinal fatty acid binding protein
B20: 102V, 72A (protein, listed as Rattus norvegicus)
chain: B1 chain with A49V, L102V
modifications: PEPTIDE (1)...(131) wild-type rat intestinal fatty acid binding protein

Assay: Probe fluorescence ratio response to palmitic acid relative to ADIFAB2
Format: binding
Details: response relative to ADIFAB2
Procedure, shortened: (§1)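 Fluorescently labeled rat intestinal FABP variants were read at two emission wavelengths, near the unbound maximum (about 420 to 480 nm) and the FFA-bound maximum (about 495 to 580 nm). R = Fλ1/Fλ2 after subtracting probe-free intensity; ΔR = R+agent − R0, normalized to ADIFAB2 (rI-FABP-L72A).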

| Molecule | DR/DR PA |
| --- | --- |
| B1 | 0.79 |
| B2 | 0.80 |
| B3 | 0.66 |
| B4 | 0.75 |
| B5 | 1.00 |
| B6 | 0.43 |
| B7 | 0.76 |
| B8 | 1.16 |
| B9 | 0.74 |
| B10 | −0.18 |
| B11 | 0.64 |
| B12 | 0.16 |
| B13 | 0.12 |
| B14 | 0.78 |
| B15 | 0.69 |
| B16 | 0.43 |
| B17 | 0.75 |
| B18 | 0.35 |
| B19 | 0.94 |
| B20 | 0.35 |

Assay: Probe fluorescence ratio response to linoleic acid relative to ADIFAB2
Format: binding
Details: response relative to ADIFAB2
Procedure, shortened: as §1

| Molecule | DR/DR LA |
| --- | --- |
| B1 | 1.72 |
| B2 | 1.71 |
| B3 | 1.29 |
| B4 | 1.14 |
| B5 | 1.81 |
| B6 | 0.67 |
| B7 | 1.59 |
| B8 | 1.84 |
| B9 | 1.10 |
| B10 | −0.21 |
| B11 | 1.29 |
| B12 | 0.32 |
| B13 | 0.26 |
| B14 | 1.75 |
| B15 | 1.25 |
| B16 | 0.58 |
| B17 | 1.58 |
| B18 | 0.58 |
| B19 | 1.37 |
| B20 | 0.67 |

Assay: Probe fluorescence ratio response to arachidonic acid relative to ADIFAB2
Format: binding
Details: Arachidonic acid; response relative to ADIFAB2
Procedure, shortened: as §1

| Molecule | DR/DR AA |
| --- | --- |
| B1 | 1.72 |
| B2 | 1.64 |
| B3 | 1.27 |
| B4 | 1.18 |
| B5 | 1.76 |
| B6 | 0.66 |
| B7 | 1.57 |
| B8 | 1.80 |
| B9 | 1.26 |
| B10 | −0.13 |
| B11 | 1.26 |
| B12 | 0.31 |
| B14 | 1.68 |
| B15 | 0.92 |
| B16 | 0.62 |
| B17 | 1.47 |
| B18 | 0.58 |
| B19 | 1.36 |

Same assay, conditions: arachidonic acid; response relative to ADIFAB2

| Molecule | DR/DR AA |
| --- | --- |
| B13 | 0.21 |
| B20 | 0.46 |

Assay: Probe fluorescence ratio response to oleic acid relative to ADIFAB2
Format: binding
Details: response relative to ADIFAB2
Procedure, shortened: as §1

| Molecule | DR/DR OA |
| --- | --- |
| B1 | 1.60 |
| B2 | 1.51 |
| B3 | 1.18 |
| B4 | 1.14 |
| B5 | 1.67 |
| B6 | 0.67 |
| B7 | 1.40 |
| B8 | 1.80 |
| B9 | 1.11 |
| B10 | −0.20 |
| B11 | 1.15 |
| B12 | 0.32 |
| B13 | 0.26 |
| B14 | 1.56 |
| B15 | 1.20 |
| B16 | 0.56 |
| B17 | 1.39 |
| B18 | 0.56 |
| B19 | 1.30 |
| B20 | 0.57 |

Assay: Probe fluorescence ratio response to linolenic acid relative to ADIFAB2
Format: binding
Details: response relative to ADIFAB2
Procedure, shortened: as §1

| Molecule | DR/DR LNA |
| --- | --- |
| B1 | 1.68 |
| B2 | 1.68 |
| B3 | 1.34 |
| B4 | 1.18 |
| B5 | 1.77 |
| B6 | 0.64 |
| B7 | 1.53 |
| B8 | 1.82 |
| B9 | 1.18 |
| B10 | −0.18 |
| B11 | 1.25 |
| B12 | 0.30 |
| B13 | 0.24 |
| B14 | 1.70 |
| B15 | 1.23 |
| B16 | 0.55 |
| B17 | 1.54 |
| B18 | 0.58 |
| B19 | 1.37 |
| B20 | 0.51 |
